For three molecules, binding signal results are on record in patent US20220289795, “EFFICIENT METHOD FOR PREPARING PPR PROTEIN AND USE OF THE SAME” (EditForce, Inc., published 2022).

Holding throughout (test): ELONA; RPB-ELISA
Background: In an ELISA, binding on a coated surface is turned into a signal by an enzyme label.

The target in one data set is T1, NL_v2_PPR11 (Artificial Sequence).
T1 chain: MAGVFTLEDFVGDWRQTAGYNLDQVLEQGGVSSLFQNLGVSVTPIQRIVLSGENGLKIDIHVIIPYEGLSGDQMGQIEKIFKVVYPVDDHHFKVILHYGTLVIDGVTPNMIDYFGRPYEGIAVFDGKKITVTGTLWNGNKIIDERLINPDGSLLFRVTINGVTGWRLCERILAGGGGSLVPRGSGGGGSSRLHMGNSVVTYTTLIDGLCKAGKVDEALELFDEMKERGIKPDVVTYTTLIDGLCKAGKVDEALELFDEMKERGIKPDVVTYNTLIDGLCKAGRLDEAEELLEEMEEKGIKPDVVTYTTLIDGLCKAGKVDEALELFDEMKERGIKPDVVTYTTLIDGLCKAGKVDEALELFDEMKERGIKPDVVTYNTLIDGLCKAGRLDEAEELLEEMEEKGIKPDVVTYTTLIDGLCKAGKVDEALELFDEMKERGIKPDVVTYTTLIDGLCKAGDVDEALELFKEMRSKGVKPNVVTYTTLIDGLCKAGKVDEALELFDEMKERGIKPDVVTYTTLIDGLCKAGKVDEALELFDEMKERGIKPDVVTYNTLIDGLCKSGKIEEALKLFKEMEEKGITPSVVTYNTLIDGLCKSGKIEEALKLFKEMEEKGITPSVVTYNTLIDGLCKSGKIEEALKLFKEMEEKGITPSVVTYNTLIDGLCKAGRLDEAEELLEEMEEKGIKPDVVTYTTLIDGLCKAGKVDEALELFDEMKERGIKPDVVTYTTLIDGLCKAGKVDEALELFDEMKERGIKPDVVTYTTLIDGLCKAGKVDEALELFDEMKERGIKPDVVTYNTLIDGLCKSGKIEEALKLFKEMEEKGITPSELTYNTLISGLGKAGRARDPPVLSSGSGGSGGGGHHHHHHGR
Conditions: tags: N-term luciferase, C-term 6xHis; label: 5'-biotin.

For another data set, the target named is T2, v3.1_PPR11 (Artificial Sequence).
T2 chain: T1 chain with D458K
To be noted: tags: luciferase fusion; label: 5'-biotin.

Another data set deals with T3, v3.1_PPR12 (Artificial Sequence).
T3 chain: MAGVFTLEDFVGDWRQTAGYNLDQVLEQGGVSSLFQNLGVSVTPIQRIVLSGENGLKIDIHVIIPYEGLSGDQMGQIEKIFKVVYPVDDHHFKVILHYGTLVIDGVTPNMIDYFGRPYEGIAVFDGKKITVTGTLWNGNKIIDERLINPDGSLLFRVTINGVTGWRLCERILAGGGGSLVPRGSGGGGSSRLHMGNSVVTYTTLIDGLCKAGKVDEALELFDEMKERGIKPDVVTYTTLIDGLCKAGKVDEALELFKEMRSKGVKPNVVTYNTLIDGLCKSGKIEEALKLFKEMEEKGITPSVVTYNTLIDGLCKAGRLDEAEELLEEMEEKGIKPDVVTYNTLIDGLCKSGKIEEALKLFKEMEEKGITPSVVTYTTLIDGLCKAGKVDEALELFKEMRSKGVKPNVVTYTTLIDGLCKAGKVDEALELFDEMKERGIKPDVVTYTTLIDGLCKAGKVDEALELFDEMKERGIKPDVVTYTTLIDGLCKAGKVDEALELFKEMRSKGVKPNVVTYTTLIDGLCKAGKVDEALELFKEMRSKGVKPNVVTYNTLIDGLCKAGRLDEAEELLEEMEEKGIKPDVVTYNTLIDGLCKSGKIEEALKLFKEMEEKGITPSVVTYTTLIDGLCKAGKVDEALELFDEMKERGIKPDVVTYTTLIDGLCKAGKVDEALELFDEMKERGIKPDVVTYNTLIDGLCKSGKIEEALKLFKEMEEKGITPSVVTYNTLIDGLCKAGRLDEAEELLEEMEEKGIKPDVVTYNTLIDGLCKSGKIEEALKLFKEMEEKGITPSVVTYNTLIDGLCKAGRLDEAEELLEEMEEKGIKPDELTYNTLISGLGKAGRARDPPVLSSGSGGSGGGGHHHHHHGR
Conditions: tags: luciferase fusion; label: 5'-biotin.

The target in another data set is T4, NL_v2_PPR12 (Artificial Sequence).
T4 chain: T3 chain with K248D, K388D, K493D, K528D
Conditions: tags: N-term luciferase, C-term 6xHis; label: 5'-biotin.

For a further data set, the target named is T5, v3.1_PPR10 (Artificial Sequence).
T5 chain: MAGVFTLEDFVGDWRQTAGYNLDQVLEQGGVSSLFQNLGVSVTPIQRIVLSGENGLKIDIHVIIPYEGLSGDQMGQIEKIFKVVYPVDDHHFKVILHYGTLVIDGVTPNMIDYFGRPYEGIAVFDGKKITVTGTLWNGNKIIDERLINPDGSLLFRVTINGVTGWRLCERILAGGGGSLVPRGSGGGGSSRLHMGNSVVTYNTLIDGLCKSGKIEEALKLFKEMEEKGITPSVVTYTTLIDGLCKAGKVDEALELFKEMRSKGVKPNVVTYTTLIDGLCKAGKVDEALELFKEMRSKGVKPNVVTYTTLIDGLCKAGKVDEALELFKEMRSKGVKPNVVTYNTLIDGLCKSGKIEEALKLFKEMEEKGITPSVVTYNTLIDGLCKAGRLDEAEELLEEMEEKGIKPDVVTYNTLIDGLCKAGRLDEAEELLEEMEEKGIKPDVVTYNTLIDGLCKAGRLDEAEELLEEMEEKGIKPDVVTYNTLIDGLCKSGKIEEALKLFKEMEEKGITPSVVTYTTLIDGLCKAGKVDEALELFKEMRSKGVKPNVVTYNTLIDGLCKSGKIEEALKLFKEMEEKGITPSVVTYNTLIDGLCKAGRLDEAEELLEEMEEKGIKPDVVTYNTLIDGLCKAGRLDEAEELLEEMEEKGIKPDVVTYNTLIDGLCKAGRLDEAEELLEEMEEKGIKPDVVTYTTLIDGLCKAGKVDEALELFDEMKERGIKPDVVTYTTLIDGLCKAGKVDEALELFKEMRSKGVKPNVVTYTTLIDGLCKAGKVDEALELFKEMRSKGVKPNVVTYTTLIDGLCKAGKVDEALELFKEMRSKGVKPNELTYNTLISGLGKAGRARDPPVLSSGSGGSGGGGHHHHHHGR
Conditions: tags: luciferase fusion; label: 5'-biotin.

The target in a further data set is T6, NL_v2_PPR10 (Artificial Sequence).
T6 chain: T5 chain with K248D, K283D, K318D, K528D, K738D, K773D, K808D
To be noted: tags: N-term luciferase, C-term 6xHis; label: 5'-biotin.

Positions count from the first letter of the chain named.

Take GACAUGCGGUGGUGAGGCCCUGGGCGACUG (ssRNA) [RNA_11]: the binding signal in the data set with NL_v2_PPR11 worked out at 1.2e+07 luminescence; with v3.1_PPR11, 2.6e+07 luminescence.
GACAUGCGACUCAGGAAUCGGCUCUGACUG (ssRNA) [RNA_12]: the binding signal with v3.1_PPR12 was 1.8e+07 luminescence; with NL_v2_PPR12, 3.8e+07 luminescence.
As for GACAUGCCAAACUUUCACUUUGAAAGACUG (ssRNA) [RNA_10], the values for the binding signal with v3.1_PPR10 and with NL_v2_PPR10 were 5.8e+07 luminescence and 7.8e+06 luminescence, respectively.
